Laboratory results published in patent US20220281980A1 (Bristol-Myers Squibb, published 2022).
Changes are numbered by the printed parent chain.

B1: 24G11 (antibody, V domains shown)
VH: EVQLVQSGAEVKKPGESLKISCKGSGYSFTNYWIGWVRQMPGKGLEWLGIIHPGDSYTRYSPSFQGQVTISADKSISTAYLQWSSLKASDTAIYYCAREGIAATPFDYWGQGTLVTVSS
VL: EIVLTQSPATLSLSPGERATLSCRASQSVSSYLAWFQQKPGQAPRLLIYDASNRATGIPARFSGSGSGTDFTLTISSLEPEDFAVYYCQQRSNWPPTFGQGTKVEIK
notes: also called MICA.54; 24G11 (MICA.54)
B2: 19G6 (antibody, V domains shown)
VH: QVQLVESGGGVVQPGRSLRLSCAASGFTFSNYAMHWVRQAPGEGLEWVALIWYDGSNKFYGDSVKGRFTISRDNSKNTLYLQMNSLSAEDTAVYYCAREGSGHYWGQGTLVTVSS
VL: AIQLTQSPSSLSASVGDRVTITCRASQGISSALAWYQQKPGKVPKSLIYDASSLESGVPSRFSGSGSGTDFTLTISSLQPEDFATYYCQQFNSYPITFGQGTRLEIK
notes: Hybridoma antibody from human IgG transgenic mice, parent of MICA.36; also called 19G6 mAb; hybridoma 19G6
B3: MICA.2 (antibody, human IgG1, kappa, V domains shown)
VH: EVQLVESGGGLVQPGGSLRLSCAASGFTFSTYSMNWVRQAPGKGLEWVSYISYRSRTIYYADSVKGRFTISRDNARNSLYLQMNSLRDEDTAVYYCARWGYGSGGFDYWGQGTLVTVSS
VL: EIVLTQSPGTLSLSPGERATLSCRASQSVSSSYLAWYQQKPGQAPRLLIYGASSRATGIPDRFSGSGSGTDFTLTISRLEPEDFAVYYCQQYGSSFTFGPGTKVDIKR
notes: 3F5 variable regions on human IgG1f and human kappa constant regions, made in CHO-S cells; also called 3F5; recombinant antibody of 3F5
B4: 71C2 (antibody, V domains shown)
VH: EVQLVESGGGLVQPGRSLRLSCAASGFTFNNYAMHWVRQAPGKGLEWVSGITWNSDSIGYADSVKGRFTISRDNAKNSLYLQMNSLRAEDTALYYCAKDSVLLWFGGMDVWGQGTTVTVSS
VL: not shown
notes: Hybridoma antibody
B5: MICA.36 (antibody, V domains shown)
VH: B2 VH
VL: B2 VL
notes: it says that the name implies no specific constant region; Radioiodinated in the Scatchard assay; also called MICA.36 antibody

Molecular target: T1, human MICA*002 expressed on CHO cells (human, UniProt Q29983 24-382)
T1 construct: also called MICA allele 002
T1 chain: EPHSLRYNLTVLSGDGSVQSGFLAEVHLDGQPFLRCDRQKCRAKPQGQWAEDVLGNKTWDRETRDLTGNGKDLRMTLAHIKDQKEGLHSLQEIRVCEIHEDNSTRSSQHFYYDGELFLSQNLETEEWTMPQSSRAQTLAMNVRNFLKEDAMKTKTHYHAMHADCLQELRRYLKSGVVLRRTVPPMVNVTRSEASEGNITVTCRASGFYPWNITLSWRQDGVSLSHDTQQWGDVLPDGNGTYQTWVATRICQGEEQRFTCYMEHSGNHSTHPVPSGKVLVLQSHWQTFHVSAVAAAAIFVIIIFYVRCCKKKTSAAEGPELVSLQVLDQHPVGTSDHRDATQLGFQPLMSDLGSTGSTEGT
Test: flow cytometry, transfected CHO cells

Binder | EC50
B1 | 1060 nM
B2 | 152 nM
B3 | 5.37 nM
B4 | 264 nM

Molecular target: T2, human MICA*004 expressed on CHO cells (human, UniProt Q29983 24-383)
T2 construct: also called MICA allele 004
T2 chain: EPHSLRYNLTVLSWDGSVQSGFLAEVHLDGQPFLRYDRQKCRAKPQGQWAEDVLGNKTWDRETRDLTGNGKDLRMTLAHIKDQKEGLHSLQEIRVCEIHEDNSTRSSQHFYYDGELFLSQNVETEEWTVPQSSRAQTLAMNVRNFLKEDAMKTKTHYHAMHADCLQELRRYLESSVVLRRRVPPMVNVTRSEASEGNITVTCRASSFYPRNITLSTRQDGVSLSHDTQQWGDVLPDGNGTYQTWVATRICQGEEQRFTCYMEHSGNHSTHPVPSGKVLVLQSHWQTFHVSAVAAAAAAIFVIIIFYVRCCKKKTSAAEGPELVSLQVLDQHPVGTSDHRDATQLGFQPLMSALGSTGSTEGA
Test: flow cytometry, transfected CHO cells

Binder | EC50
B1 | 518 nM
B2 | 11.4 nM
B3 | 2.94 nM
B4 | 26.2 nM

Molecular target: T3, human MICA*009 expressed on CHO cells (human, UniProt Q29983 24-382)
T3 construct: also called MICA allele 009
T3 chain: T1 chain with G14W, C36Y, M129V, K173E, G175S, G206S, W210R, S215T, D350A
Test: flow cytometry, transfected CHO cells

Binder | EC50
B1 | 497 nM
B2 | 8.21 nM
B3 | 1.56 nM
B4 | 10.2 nM

Molecular target: T4, human MICA*010 expressed on CHO cells (human, UniProt Q29983 24-383)
T4 construct: also called MICA allele 010
T4 chain: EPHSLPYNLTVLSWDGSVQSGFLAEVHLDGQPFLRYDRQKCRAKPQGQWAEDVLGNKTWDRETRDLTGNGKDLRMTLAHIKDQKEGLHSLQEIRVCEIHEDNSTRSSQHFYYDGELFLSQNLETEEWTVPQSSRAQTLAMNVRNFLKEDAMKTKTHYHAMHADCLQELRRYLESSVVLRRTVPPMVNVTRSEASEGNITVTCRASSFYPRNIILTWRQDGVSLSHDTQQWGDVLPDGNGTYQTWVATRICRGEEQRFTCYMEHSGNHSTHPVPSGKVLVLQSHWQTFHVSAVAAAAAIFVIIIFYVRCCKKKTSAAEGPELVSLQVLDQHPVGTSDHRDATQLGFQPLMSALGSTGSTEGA
Test: flow cytometry, transfected CHO cells

Binder | EC50
B1 | 722 nM
B2 | 18.5 nM
B3 | 6.91 nM
B4 | 80 nM

Molecular target: T5, human MICB expressed on transduced cells (human, UniProt Q29980 23-382)
T5 construct: also called MICB*005
T5 chain: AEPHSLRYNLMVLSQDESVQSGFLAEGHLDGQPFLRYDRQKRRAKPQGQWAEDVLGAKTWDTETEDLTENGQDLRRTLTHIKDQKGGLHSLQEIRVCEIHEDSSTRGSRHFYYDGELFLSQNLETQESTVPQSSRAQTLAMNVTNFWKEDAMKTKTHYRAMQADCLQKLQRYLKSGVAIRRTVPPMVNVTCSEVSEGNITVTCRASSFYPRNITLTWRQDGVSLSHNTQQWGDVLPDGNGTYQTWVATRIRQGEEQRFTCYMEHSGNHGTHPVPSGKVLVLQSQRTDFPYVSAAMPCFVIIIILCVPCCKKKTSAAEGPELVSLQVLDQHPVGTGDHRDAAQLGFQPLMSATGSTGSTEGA
Test: flow cytometry, transfected CHO cells

Binder | EC50
B1 | 262 nM
B2 | 1.83 nM
B3 | 6 nM
B4 | 9.81 nM

Molecular target: T6, cynomolgus monkey MICA/B clone #4 expressed on CHO cells (cynomolgus monkey)
T6 construct: whole, on cells; also called cyno#4; CHO-cyno MICA clone #4
Test: flow cytometry, transfected CHO cells

Binder | EC50
B1 | 394 nM
B2 | 1.08 nM
B3 | 1.97 nM
B4 | 23.4 nM

Molecular target: T7, cynomolgus monkey MICA/B clone #6 expressed on CHO cells (cynomolgus monkey)
T7 construct: whole, on cells; also called cyno#6; CHO-cyno MICA clone #6
Test: flow cytometry, transfected CHO cells

Binder | EC50
B1 | 331 nM
B2 | 22 nM
B3 | 4.01 nM
B4 | 232 nM

Molecular target: T8, human MICA*008 expressed on CHO cells (human, UniProt Q29983 24-331)
T8 construct: also called MICA allele 008
T8 chain: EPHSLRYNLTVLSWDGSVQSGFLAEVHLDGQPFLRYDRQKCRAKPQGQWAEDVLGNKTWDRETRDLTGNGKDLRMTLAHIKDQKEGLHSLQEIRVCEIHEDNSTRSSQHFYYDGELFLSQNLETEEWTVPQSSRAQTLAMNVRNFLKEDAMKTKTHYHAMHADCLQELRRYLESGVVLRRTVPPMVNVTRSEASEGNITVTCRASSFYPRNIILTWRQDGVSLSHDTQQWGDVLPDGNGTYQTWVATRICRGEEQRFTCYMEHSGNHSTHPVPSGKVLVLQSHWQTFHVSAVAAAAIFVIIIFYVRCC
Test: saturation binding of 125I-labelled antibody on CHO-MICA*008 cells, 12,500 cells/well; fit of total binding, non-specific binding not subtracted
Protocol: Nonspecific binding was determined by binding in the presence of a titration of a 100 fold molar excess of unlabeled antibody and was subtracted from total counts per minute (CPM) to calculate specific binding. A linear standard curve of ¹²⁵I-MICA.36 concentration versus CPM was used to extrapolate specific activity, maximal nM bound ¹²⁵I-MICA.36 and thereby calculate receptor number per cell.
Specific activity of the iodinated MICA.36 was determined by plotting antibody titrations against the associated CPMs in a standard curve (FIG. 7A). The specific activity was calculated to be 164,214 CPM in 1 nM of ¹²⁵I-MICA.36. The number of receptors per cell was calculated by the following equation: (Bmax)×(Avogadro's number)×(Assay Volume)/# of cells per well.

Binder | Kd of the total-binding curve
B5 | 1.24 nM
